# According to patent US5753229:
# B1: monoclonal antibody FC-2.15 (antibody, V domains shown)
# VH: VKLQESGGGLVQPGGSLKLSCAASGFDFSRYWMSYVRQAPGKGLEWIGEIDPDSSTINYTPSLKDKFIISRDNAKNTLYLQMSKVRSEDTALYYCARETGTPFDYWGQGTTLTVSS
# VL: DIVMTQSPASLSVATGEKVTIRCITSTDIDDDMNWYEQKPGEPPKLLISEGNTLRPGVPSPFSSSGYGTDFVFTIENTHSEDVADYYCLQSDNMPFTFGSGTKLEIKP
# Key:
# [1] = target: Ag 2.15 (FC-2.15 antigen of breast tumor cells; membrane bands of 160 kDa, 130 kDa and 115 kDa) (human); test: cell ELISA on MCF-7 cells after periodate oxidation, against untreated cells
# [2] = target: Ag 2.15 (FC-2.15 antigen of breast tumor cells; membrane bands of 160 kDa, 130 kDa and 115 kDa) (human)
binder,measurement,setting,value
B1,% inhibition of reactivity by 10 mM periodate,[1],47.1%
same,Residual clonogenic ability (%) after MAb and rabbit complement,[2],11.7%
